Source: article PMC5363614, “Secreted protein acidic and rich in cysteine (SPARC) induces lipotoxicity in neuroblastoma by regulating transport of albumin complexed with fatty acids” (Oncotarget, 2016)

Target: T1, Bovine serum albumin (bovine, UniProt P02769 25-607)
T1 construct: Serum albumin, bovine (BSA); Unlabelled BSA used as analyte in SPR; also called BSA; source: bought: Sigma-Aldrich
Test: SPR; BIAcore 3000; histidine-tagged SPARC immobilised on Sensor NTA chip to about 100 RU; BSA as analyte, room temperature, 20 ul/minute, 5 minutes association, 5 minutes dissociation; global Langmuir fitting
Conditions: both partners purified

T1 sequence (P02769 25-607): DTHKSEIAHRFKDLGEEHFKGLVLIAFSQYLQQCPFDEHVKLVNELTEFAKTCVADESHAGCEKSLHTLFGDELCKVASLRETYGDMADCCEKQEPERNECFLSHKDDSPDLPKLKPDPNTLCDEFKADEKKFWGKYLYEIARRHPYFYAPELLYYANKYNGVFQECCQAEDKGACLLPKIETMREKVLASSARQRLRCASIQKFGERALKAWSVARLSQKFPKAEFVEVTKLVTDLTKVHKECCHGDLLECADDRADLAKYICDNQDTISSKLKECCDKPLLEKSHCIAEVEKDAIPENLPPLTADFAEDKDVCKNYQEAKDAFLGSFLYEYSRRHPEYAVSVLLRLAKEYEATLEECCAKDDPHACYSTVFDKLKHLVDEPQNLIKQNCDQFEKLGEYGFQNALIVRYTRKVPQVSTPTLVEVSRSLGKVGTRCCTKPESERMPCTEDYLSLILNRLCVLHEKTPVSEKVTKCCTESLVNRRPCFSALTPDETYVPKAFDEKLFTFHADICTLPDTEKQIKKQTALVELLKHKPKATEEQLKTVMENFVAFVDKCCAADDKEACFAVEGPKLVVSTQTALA

- Kd: 18.9 µM
B1: Recombinant human SPARC (secreted protein acidic and rich in cysteine), histidine-tagged (natural protein, UniProt P09486 18-303, looked up)
chain: APQQEALPDETEVVEETVAEVTEVSVGANPVQVEVGEFDDGAEETEEEVVAENPCQNHHCKHGKVCELDENNTPMCVCQDPTSCPAPIGEFEKVCSNDNKTFDSSCHFFATKCTLEGTKKGHKLHLDYIGPCKYIPPCLDSELTEFPLRMRDWLKNVLVTLYERDEDNNLLTEKQKLRVKKIHENEKRLEAGDHPVELLARDFEKNYNMYIFPVHWQFGQLDQHPIDGYLSHTELAPLRAPLIPMEHCTTRFFETCDLDNDKYIALDEWAGCFGIKQKDIDKDLVI
notes: Secreted protein acidic and rich in cysteine (SPARC), human, recombinant; The histidine tag is named for the SPR experiment; also called rhSPARC; histidine-tagged recombinant SPARC; source: HEK293 cells transfected with SPARC, serum-free conditioned media; purified as described [25]
